What was measured:
[1] = target: F-actin (cellular actin filaments of RPE cells) (human (endogenous in RPE cells)) (UniProt P60709); experiment: co-sedimentation; actin pelleting assay: homogenate of RPE cells expressing GFP-myosin VI constructs in F-actin stabilisation buffer (50 mM PIPES pH 6.9, 50 mM NaCl, mild detergents), 100 000 x g, 1 h, 37°C; quantitative immunoblotting, pellet/supernatant normalised to endogenous myosin VI; the pellet also holds cellular membranes
[2] = target: GIPC in the prey vector pVP16 (UniProt O14908); experiment: mammalian two-hybrid assay; details: parent: est. 100, read off a plot
[3] = target: NDP52 in the prey vector pVP16 (UniProt Q13137); experiment: mammalian two-hybrid assay; details: parent: est. 100, read off a plot
[4] = target: Dab2 in the prey vector pVP16 (UniProt P98082); experiment: mammalian two-hybrid assay; details: parent: est. 100, read off a plot
[5] = target: LMTK2 in the prey vector pVP16 (UniProt Q8IWU2); experiment: mammalian two-hybrid assay; details: n = 4; parent: est. 100; read off a plot
[6] = target: TOM1 in the prey vector pVP16 (UniProt O60784); experiment: mammalian two-hybrid assay; details: parent: est. 100, read off a plot
[7] = target: optineurin in the prey vector pVP16 (UniProt Q96CV9); experiment: mammalian two-hybrid assay; details: n = 4; parent: est. 100; read off a plot
[8] = target: F-actin (cellular actin filaments of RPE cells), P60709; experiment: cell fractionation into supernatant and F-actin-enriched pellet, quantitative immunoblotting; details: chain shown with the change, n = 3, parent: est. 1.3, read off a plot

A fold increase of the pellet/supernatant ratio against WT myosin VI [1] greater than 5 fold was found for “GFP-tagged full-length myosin VI-NI RRL–AAA (from UniProt Q9UM54-1 1-1285) (natural protein)” in this work.

A fold increase of the pellet/supernatant ratio against WT myosin VI [1] of 3 fold was found for “GFP-tagged full-length myosin VI-NI WWY–WLY (from UniProt Q9UM54-1 1-1285) (natural protein)” in this work.

A percent of parent (% wildtype control) ([2]; n = 3) of 32 and a percent of parent (% wildtype control) ([3]; n = 3) of 100 were found for “Myosin VI globular tail (amino acids 1036–1294), wild type, in the bait vector pM L1109A” in this work.

A percent of parent (% wildtype control) ([2]; n = 3) of 69 and a percent of parent (% wildtype control) ([3]; n = 3) of 76 were found for “Myosin VI globular tail (amino acids 1036–1294), wild type, in the bait vector pM R1107A” in this work.

A percent of parent (% wildtype control) ([2]; n = 3) of 2 and a percent of parent (% wildtype control) ([3]; n = 3) of 16 were found for “Myosin VI globular tail (amino acids 1036–1294), wild type, in the bait vector pM R1108A” in this work.

A percent of parent (% wildtype control) ([4]; n = 4) of 1, a percent of parent (% wildtype control) ([4]; n = 5) of 1 and a percent of parent (% wildtype control) ([2]; n = 4) of 59 were found for “Myosin VI globular tail (amino acids 1036–1294), wild type, in the bait vector pM W1253A” in this work. The percent of parent (% wildtype control) [5] was 0, the percent of parent (% wildtype control) ([3]; n = 4) was 71 and the percent of parent (% wildtype control) ([6]; n = 3) was 2. The percent of parent (% wildtype control) ([6]; n = 4) was 2 and the percent of parent (% wildtype control) [7] was 120.

B1: GFP-tagged full-length myosin VI-NI, wild type, Q9UM54-1 E1251A (protein)
chain: MEDGKPVWAPHPTDGFQMGNIVDIGPDSLTIEPLNQKGKTFLALINQVFPAEEDSKKDVEDNCSLMYLNEATLLHNIKVRYSKDRIYTYVANILIAVNPYFDIPKIYSSEAIKSYQGKSLGTRPPHVFAIADKAFRDMKVLKMSQSIIVSGESGAGKTENTKFVLRYLTESYGTGQDIDDRIVEANPLLEAFGNAKTVRNNNSSRFGKFVEIHFNEKSSVVGGFVSHYLLEKSRICVQGKEERNYHIFYRLCAGASEDIREKLHLSSPDNFRYLNRGCTRYFANKETDKQILQNRKSPEYLKAGSMKDPLLDDHGDFIRMCTAMKKIGLDDEEKLDLFRVVAGVLHLGNIDFEEAGSTSGGCNLKNKSAQSLEYCAELLGLDQDDLRVSLTTRVMLTTAGGTKGTVIKVPLKVEQANNARDALAKTVYSHLFDHVVNRVNQCFPFETSSYFIGVLDIAGFEYFEHNSFEQFCINYCNEKLQQFFNERILKEEQELYQKEGLGVNEVHYVDNQDCIDLIEAKLVGILDILDEENRLPQPSDQHFTSAVHQKHKDHFRLTIPRKSKLAVHRNIRDDEGFIIRHFAGAVCYETTQFVEKNNDALHMSLESLICESRDKFIRELFESSTNNNKDTKQKAGKLSFISVGNKFKTQLNLLLDKLRSTGASFIRCIKPNLKMTSHHFEGAQILSQLQCSGMVSVLDLMQGGYPSRASFHELYNMYKKYMPDKLARLDPRLFCKALFKALGLNENDYKFGLTKVFFRPGKFAEFDQIMKSDPDHLAELVKRVNHWLTCSRWKKVQWCSLSVIKLKNKIKYRAEACIKMQKTIRMWLCKRRHKPRIDGLVKVGTLKKRLDKFNEVVSVLKDGKPEMNKQIKNLEISIDTLMAKIKSTMMTQEQIQKEYDALVKSSEELLSALQKKKQQEEEAERLRRIQEEMEKERKRREEDEKRRRKEEEERRMKLEMEAKRKQEEEERKKREDDEKRIQAEVEAQLARQKEEESQQQAVLEQERRDRELALRIAQSEAELISDEAQADLALRRNDGTRPKMTPEQMAKEMSEFLSRGPAVLATKAAAGTKKYDLSKWKYAELRDTINTSCDIELLAACREEFHRRLKVYHAWKSKNKKRNTETEQRAPKSVTDYDFAPFLNNSPQQNPAAQIPARQREIEMNRQQRFFRIPFIRPADQYKDPQSKKKGWWYAHFDGPWIARQMELHPDKPPILLVAGKDDMEMCELNLEETGLTRKRGAEILPRQFEAIWERCGGIQYLQNAIESRQARPTYATAMLQSLLK
An other: pellet:supernatant (P:S) ratio [8] of 1.2 was found for B1 in this work.

Reference: publication PMC5074368
